± gives the uncertainty stated by the source.
Test: protein stability index of a GFP-peptide fusion (yeast GPS) (PSI 1-4); higher = more stable; sorted into four equal gates, so the index is relative within each strain
Outline: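 Tiled yeast protein peptides of 17 residues were each joined downstream of GFP, on plasmids that also express Cherry. The pooled library was maintained in yeast, and mid-log cultures in leucine-free medium were sorted into four equal gates on the GFP/Cherry ratio. Plasmids from every gate were amplified by PCR and sequenced on Illumina, with barcodes linking reads to strains. The protein stability index of a peptide is its gate-number-weighted read frequency summed over the gates.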

Sequence	protein stability index (doa10∆)	protein stability index (pdr5∆)	protein stability index (san1∆)	protein stability index (ubr1∆)
PHLPFSKSENPVLSTIA [SWI3]	1.95 ± 0.049	2.04 ± 0.048	2.03 ± 0.062	2.05 ± 0.028
LVLDLLTWLSSFSVCKI [IRR1]	2.21 ± 0.06	1.59 ± 0.05	1.65 ± 0.073	1.71 ± 0.039
LLQLIQSQPQEKFSEKM [ECM29]	2.49 ± 0.098	2.02 ± 0.098	2.46 ± 0.093	2.47 ± 0.071
QDRIQDVKLVLASNFDN [MED1]	2.56 ± 0.057	2.67 ± 0.06	1.88 ± 0.08	2.21 ± 0.036
TRPISSQVLDLAKKIAP [SMC2]	2.72 ± 0.15	2.44 ± 0.097	2.59 ± 0.28	1.95 ± 0.14
SDIPKTTVQVAEEAIVN [PRE4]	2.92 ± 0.12	2.72 ± 0.09	1.81 ± 0.28	2.54 ± 0.091
IDAALDKQYRTAVATLL [SMC3]	1.87 ± 0.093	2.17 ± 0.079	2.65 ± 0.12	2.82 ± 0.081
IAVLIELLEERFQDSNP [YCS4]	1.62 ± 0.032	2.06 ± 0.058	2.66 ± 0.063	2.82 ± 0.069
PLGILHIPICVTFSFFN [RRP45]	1.29 ± 0.05	1.26 ± 0.06	1.2 ± 0.096	1.12 ± 0.045
TFVYILEKLIFDMTNHY [SRB8]	1.71 ± 0.061	1.93 ± 0.042	1.69 ± 0.1	1.69 ± 0.039
NQSNLNGGNNTQQPGTN [SNF2]	2.76 ± 0.073	3.1 ± 0.075	3.08 ± 0.062	3.04 ± 0.056
KLREPVARFLHFNGIRR [ITC1]	2.04 ± 0.088	2.05 ± 0.063	2.5 ± 0.083	2.09 ± 0.046
KDGSNPRTLIGHRATVT [RPN14]		3.31 ± 0.26	3.07 ± 0.14	
YQTRARQKARTDAHTPL [RPR2]	3.29 ± 0.1	3.14 ± 0.09	3.32 ± 0.058	3.27 ± 0.078
DDPTQLVSRGGCGNTQP [RPO21]	3.18 ± 0.12	2.55 ± 0.19	2.97 ± 0.11	3.04 ± 0.088
KGKARLGTLVNQKTSAV [RPL8A]	2.65 ± 0.078	2.38 ± 0.076	3.15 ± 0.083	2.94 ± 0.057
YIFCISRTIGMVVNGPI [SCL1]	1.45 ± 0.038	1.54 ± 0.047	1.58 ± 0.082	1.56 ± 0.034
VKTSPDAKKCIAACTGV [FAS1]	2.41 ± 0.12	3.02 ± 0.16	3.01 ± 0.24	2.48 ± 0.08
RPNGRKDHDLKIPLPEV [POP1]	3.06 ± 0.055	3.18 ± 0.058	2.99 ± 0.073	3.15 ± 0.065
SLDLIKERRSLKPEVRK [RPL24A]				3.32 ± 0.22
FTLWWSPTINRANVYVG [PRP8]	1.99 ± 0.089	1.88 ± 0.07	1.61 ± 0.15	2.04 ± 0.051
YQVDEDVKSSLSKVFSD [YJL039C/NUP192]	3.23 ± 0.17	3.42 ± 0.14	3.33 ± 0.17	2.93 ± 0.22
GNYIKTENATENDQQDN [LIN1]	2.51 ± 0.098	2.62 ± 0.071	2.05 ± 0.13	2.61 ± 0.086
HRVAENWRKQKGIDSVV [RPL32]	2.55 ± 0.099	2.61 ± 0.17		2.25 ± 0.18
PAITIEKLKQFSWISVV [SIR3]	1.16 ± 0.05	1.45 ± 0.055	1.24 ± 0.094	1.13 ± 0.035

Sequence	protein stability index (doa10∆)	protein stability index (pdr5∆)	protein stability index (san1∆)	protein stability index (ubr1∆)
LNLDSEQTVEYMVSRAI [RPN3]	3.32 ± 0.23	3.22 ± 0.3	2.93 ± 0.25	2.83 ± 0.11
ALPNIENDIIKLSDSKT [BRR2]	2.79 ± 0.054	3.16 ± 0.055	2.82 ± 0.044	3.23 ± 0.054
KGSRQCRVCSSHTGLVR [RPS29B]	2.67 ± 0.065	2.79 ± 0.051	2.66 ± 0.056	2.61 ± 0.03
HLHDAVFVNTGLQNVRK [SWP82]	2.99 ± 0.14	2.84 ± 0.076	2.77 ± 0.1	2.73 ± 0.088
RERIRKGLQIYQSSVQE [PRP8]			1.81 ± 0.24	
QAINLGQVVLTPLTFAL [RPL14A]	1.53 ± 0.065	1.43 ± 0.049	1.25 ± 0.09	1.35 ± 0.067
VAARMFHILLKLILEWV [ECM29]	1.42 ± 0.17	1.64 ± 0.12	1.91 ± 0.12	2.1 ± 0.094
LVDDENEPSQSLISTRN [BRN1]	3.22 ± 0.058	3.4 ± 0.064	3.19 ± 0.047	3.15 ± 0.057
PFIKSESKPFSSDALSK [SIR4]	3.17 ± 0.07	3.15 ± 0.09	3.2 ± 0.046	3.13 ± 0.061
EIYRISFQLSKIRRAAR [RPS9A]	1.95 ± 0.043	2.15 ± 0.062	2.3 ± 0.048	2.29 ± 0.046
KNVGNKSPEQCILRFLQ [SWI3]	2.15 ± 0.062	2.67 ± 0.051	2.31 ± 0.083	1.84 ± 0.033
KKLLINKDASLALQRGA [DPB4]	2.62 ± 0.094	2.75 ± 0.12	2.44 ± 0.17	3.06 ± 0.092
NSISSQPASYHSVQETN [SSN2]	2.22 ± 0.049	2.54 ± 0.058	2.88 ± 0.068	2.69 ± 0.052
TDSRTGQSTILVGSEIY [CDC53]	2.77 ± 0.056	2.64 ± 0.066	2.94 ± 0.051	2.87 ± 0.065
FKRVSQTFEAKLHFKDT [NUT1]	2.96 ± 0.082	3.32 ± 0.1	3.41 ± 0.053	3.19 ± 0.051
AGTTDNSFIKANLPWLG [RPN2]	1.48 ± 0.1	1.72 ± 0.064	1.39 ± 0.086	1.36 ± 0.065
QAQAQAHAQHQPSQQPQ [GAL11]	2.967 ± 0.022	2.972 ± 0.019	2.974 ± 0.022	3.028 ± 0.018
GTGRAVARIPRVGGGGT [RPL4A]			2.68 ± 0.21	
YPSKTLKTDGVRAVSIT [FAS2]	2.12 ± 0.078	2.3 ± 0.087	2 ± 0.091	2.23 ± 0.061
EITDASLNLQYVNYEIS [YML103C/NUP188]	2.62 ± 0.05	2.96 ± 0.067	2.31 ± 0.072	2.79 ± 0.049
AFSYPRMYEEASGKEVE [RPN2]	2.66 ± 0.09	1.34 ± 0.082	1.28 ± 0.11	1.35 ± 0.059
EKTMMTFGKPEEEDSIL [YCS4]	3.27 ± 0.15	3.37 ± 0.14	3.35 ± 0.063	3.27 ± 0.088
NVTETYSVYLIHEIRLN [SIR3]	2.59 ± 0.23	1.98 ± 0.099	2.42 ± 0.14	2.37 ± 0.066
VVFTRLVQRCWQWGNDR [CSN12]	1.42 ± 0.092	1.4 ± 0.08	1.58 ± 0.14	1.52 ± 0.058
LFSPEEVRAISVAKIRF [RPO21]	2.17 ± 0.1	2.31 ± 0.088	2.41 ± 0.096	2.39 ± 0.07

Source: the supplement of paper PMC9732359
